Assay [1] concerns the target human PI16 (Peptidase inhibitor 16) expressed on the cell surface (human) (UniProt Q6UXB8). Put plainly: flow cytometry, ILT3Fc on PI16-transfected 3A9 cells.
Assay [2] shares this target. Put plainly: flow cytometry, ILT3Fc cross-linked with anti-human Fc antibody on PI16-transfected 3A9 cells. Background: A flow cytometer gives signals particle by particle.
Assay [3] addresses ILT3-CD3z fusion protein on reporter cells (human). Put plainly: cell-based or functional assay.

ILT3-CD3z fusion protein on reporter cells (human), sequence (Q8NHJ6 22-259): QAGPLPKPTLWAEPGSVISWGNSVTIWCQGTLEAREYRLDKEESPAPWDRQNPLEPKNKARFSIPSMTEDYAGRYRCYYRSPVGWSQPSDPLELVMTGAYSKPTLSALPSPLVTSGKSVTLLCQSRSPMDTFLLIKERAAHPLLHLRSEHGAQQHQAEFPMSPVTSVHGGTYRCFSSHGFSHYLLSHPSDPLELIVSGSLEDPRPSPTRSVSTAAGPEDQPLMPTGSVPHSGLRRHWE

As for ILT3Fc (Fc fusion), the values for the percent of cells stained in assay [1] and in assay [2] were 8.3% and 23%, respectively. “human PI16 (Peptidase inhibitor 16) expressed on the cell surface (from UniProt Q6UXB8 28-463) (ligand)” yielded a luciferase activity of ILT3 reporter cells in assay [3] of 2 log.

The values are drawn from patent publication US20190241655A1.
